Target: the molecule itself
Assay: native gel or EMSA

B1: polypyrimidine tract-binding protein 1 (PTBP1), wild type (natural protein)
chain: not shown
- stoichiometry N: 2

Reference: article PMC12632113 (Cell & Bioscience, 2025)
